Source: US20050084491A1

Molecular target: surface integrins on A375.S2 cells (human melanoma cells)
Assay: flow cytometry on A375.S2 cells, CNTO95 10 ug/ml, no peptide (cells only: 3.36)

CNTO95 (antibody) was tested. Which Mean Channel Fluorescence did it give?
Its Mean Channel Fluorescence is 89.7.
